Measurements reported in the DeepSol protein solubility set.

test: soluble on expression in E. coli; label from the status in PepcDB or PDB records

Sequence	soluble on expression in E. coli
MTAWHRLPAAARALFGAKGGCTGSQRSYDDVLRVMYELTLRVVNPTYRNRTLANTSGKSAELVGLLVERLNMRRCLDTLRFVHVAGTKGKGTTASYTAALLEAYGLKVGLFTSPHVKDVRERIMVNNEVLPMDTFVHYFFQVVDCFVELAGADKEVTWDLPAPCSFFCLMFLVSLVAFAGESVDVAVVEVGIGGSRDPTNIIIPEASVITALGIDHTEILGDTVEEIALQKAGIMKPGVVCYAAPQGDHPSTRRVLKDYAEGVDSPLVFADDVAVPTDGWPCLSIGGEHAVENSRLALLAARSVMGIPLTQPLDDVERHVLQRTTVMGRSQVLPVGDGSKGTFYLDGAHTYESLRCATRWFVKESTKRTCDSKPRRVLLMYSSRQPERIVEAFRPFVDSFSKAVFVCALDPKGMREIWKNNSDAYTQDKATGLIRCWKTLCGAVPCFSRAAPFVSVEEVVEVVSAASSDDEDTSKPVQVFVTGSFFLVSDIVNLYDSQGS	not soluble
ASGSDENDVVIIGGGPGGYVAAIKAAQLGFKTTCIEKRGALGGTCLNVGCIPSKALLHSSHMYHEAKHSFANHGVKVSNVEIDLAAMMGQKDKAVSNLTRGIEGLFKKNKVTYVKGYGKFVSPSEISVDTIEGENTVVKGKHIIIATGSDVKSLPGVTIDEKKIVSSTGALALSEIPKKLVVIGAGYIGLEMGSVWGRIGSEVTVVEFASEIVPTMDAEIRKQFQRSLEKQGMKFKLKTKVVGVDTSGDGVKLTVEPSAGGEQTIIEADVVLVSAGRTPFTSGLNLDKIGVETDKLGRILVNERFSTNVSGVYAIGDVIPGPMLAHKAEEDGVACVEYLAGKVGHVDYDKVPGVVYTNPEVASVGKTEEQVKETGVEYRVGKFPFMANSRAKAIDNAEGLVKIIAEKETDKILGVHIMAPNAGELIHEAAIALQYDASSEDIARVCHAHPTMSEAIKEAAMATYDKPIHI	soluble
MAHHHHHHMTLTSRTAQAAHAQNDVAAQRPPPPLYPSMNVGASAVHPHQNRPCHAYDSQPAWQNPQLGTAPPAVIAGAPLAPEQQQQQTHQQGRSNQPQSIFGGRFTLLDRLGSGGFGEVYRAEECDQLVPLAVKVERVTDTNALPEQSFLFHEAKVMQEIHKSIQAYMAAQQQHQLLRLQQEKAQSGNGRRANNEAAAAADEVRQEKVGIAKLKYYGQDGMSRVLIMSLHGQSVANVHRHQGRLSLFATVMIADQVLRSLEHVHRAGYVHADLKPDNILLGREDPEQLYLVDFGLSVHFRDRKGKHRPLVTNHSFVGTPRYASLRTHMGHTLSRRDDIEQLVYVMIYLFRGRLPWSGLRISDPDAKEKRIAQMKAEMTLDSICAGCPEAFRDVLNYARCMEFEEEPQYQFLHVLLCSLRDSCTELSSDPSCVPANGSGGVMPQMLTLNVNCSTRQHPKDQNGGDAAANGGAVGVTAAEAGLVQNTNIVSGVVEQIDGVAENPMMMSSRGTGAPAFFSDAIGQGFLSGNGTDAGPLSPRIDCLNGQPFSPPPLDLQRPCGSPQLRQMR	not soluble
MSLARQNYHDEVEAAVNKQINVELYASYVYLSMSAHFDRDDIALRNIAKFFKEQSDEERGHATELMRIQAVRGGRVAMQNIQKPEKDEWGTVLEAFEAALALERANNASLLKLHGIAEQRNDAHLTNYIQEKYLEEQVHSINEFARHIANIKRAGPGLGEYLFDKEEFSD	not soluble
MGSDKIHHHHHHMKRPLQTWLTESWLAFSRLLTFHILERRLFEHSGRIPYEPQPGNLLYVAASVLPYHTSGYTTRTHEVVCALNKAGARVHVLTRPGYPWDRKDRLCDPVSEETTVGDMCYRHAQAPANNRPVLQYALQAARVVAESAVRHRVAVIHAASNHVNALPALLAARQLGIPFQYEMRGLWELTRISRQPGYEDSQAYKQGLQLEGLVARHADRLFVISEQLGKYVQTNWDIDAGRMALLPNCVDPERFLIADPQQIESNTIGYAGSLMGYEGLDTLIDAVDILVRSGSSVRVVIIGDGEARPQLETRVQRLGLSERIYFSGKMPPDAAREKLARCALVCIPRKPFKVCEIVPPIKLVEALAMGKPVIVPDLPVFRDELGDDPAGWFFRSGDAADLAHVIEAALGNEEKLREMSDQARDYVLAKRCWHRFVDKMAKPYDS	not soluble
MGSDKIHHHHHHMDVLVVGATGTLGRQIARRALDEGHRVRCLVRSPKRGNFLREWGCDLVRGDLTQPESLTFALEGIEAVIDAATTRSTDSLSCYDVDWQGKVNLIKAATEAGVQRFVFCSIIDAEKHRDVPLMDIKYCTEEFLRQSGLNYTILRLAGFMQGLIAEFAIPVLEGRTAFITQDSDPIAYLSTLDIARFAVAALTTPATEKQTLPVVGPKAWSGLEIFRLCERLSGKETKIARLPLATVSAMKRFFRFFQWGWNIADRLAFSEVMACGRPFTADMAATYTAFGIDPAEITGLESYLNDYFSVMLRRLKELEFDQKKDKKKKVPF	not soluble
TSNFFCGEPIDYRGITAHRLVGAEPRPPVSGTRYAKVPGVPDEYKTGYRPANLGRSDPDSDKSLMNIAVKNLQVYQQEPKLDKVDEFIERAAADVLGYLRFLTKGERQANLNFKAAFNTLDLSTSCGPFVPGKKIDHVKDGVMDQVLAKHLYKCWSVANSGKALHHIYACGLKDELRPLDKVKEGKKRLLWGCDVGVAVCAAAVFHNICYKLKMVARFGPIAVGVDMTSRDVDVIINNLTSKASDFLCLDYSKWDSTMSPCVVRLAIDILADCCEQTELTKSVVLTLKSHPMTILDAMIVQTKRGLPSGMPFTSVINSICHWLLWSAAVYKSCAEIGLHCSNLYEDAPFYTYGDDGVYAMTPMMVSLLPAIIENLRDYGLSPTAADKTEFIDVCPLNKISFLKRTFELTDIGWVSKLDKSSILRQLEWSKTTSRHMVIEETYDLAKEERGVQLEELQVAAAAHGQEFFNFVCRELERQQAYTQFSVYSYDAARKILADRKRVVSVVPDDEFVNVME	soluble
VAGPIAVGCYPALGPTILPSMLYAFTAEYPRASVEFREDTQNRLRTQLEGGELDVAIVYDLDLSPEWQTVPLMTREPMVVLGAEHPLAGVDGPVRLADLAEHPMVLLDAPPSTNHAMDVCREAGFAPRVAYRTANFETARAFVGRGLGWTLLLQRPRVDVTYEGLPVVVKPIAEPKPASVAVVVAWHQEATLSRVARAFIRFVTA	soluble
MMNTDNRLLTRESSEHIREFFSTVERLSVSMERLFAGRSPAMAGENFYTDRELAEKLKVSRRSLQQYRDSGLLAFTRLGGKILYRSSDIEKLLDGCYREARTRPEEL	not soluble
KTAFTAEVLAQSFSGEVQKLSSLVLPAEVIIAQSSIPGEGLGIFSKTWIKAGTEMGPFTGRVIAPEHVDICKNNNLMWEVFNEDGTVRYFIDASQEDHRSWMTYIKCARNEQEQNLEVVQIGTSIFYKAIEMIPPDQELLVWYGNSHNTFLGIPGVPGLEEDQKKNKHED	soluble
MAKKKKEILFCDYYEDWVETYKVGAIEDVTLNKYYVAARQLRDICPKLLMSDFSRKDYQLIMNEYGKTHEKQTAKDFHHHIKAAILDAYHDGLLKSDPTYRAVIKGKEPGKKKLEHHHHHH	soluble
GPGSMKALVRRFGPEPSVIEECSADQEWEKPCLASTEDTAVAPGDSVKDTRNNLSGSEGLANGRAESSQRAVDVSSFIRLFSVEWCLTEEQQAENSRRLDAFFHPHPAPPSCQPAPLLPSVQTCGETVDPDIWSLPEVSQEELQRWREEKLSLSDRLVWRGRKTIKQVNMRRM	not soluble
MSLSILQRLIQQAKNPRGTIGSSMLCIMNTAHTRLTNWALQKVHIKKDAIILDIGCGGGKTIHTLSKRTPLGKIYGIDYSYQAVKNSIQTNIKDVQKQKVIVQQASVSSIPYHTNFFDLITAFQTHYFWPDVEQDIKEVFRVLQPNGSFLLVAETFKIQYHMEKWKTNEELINLFYKTGFTSVKCYEERGCLCVIGTKEGHHHHHH	not soluble
MAHHHHHHMTDPTRRDPTEFLRVLRRMSNTTSWQKAMIFASKGRMVGYRLTLEHYNTVLYSQSMWGRALEMIKVIRAMQQDGVQPNGATYYYIVNGMANAEHGYNYDFNINHRLEKLQHWRVALNALQACEANGFDSTDTMHNSVIVTMTIPGMNHWREALQVLKKIIDEDRQLHPNMVRFLHDCLIRNYRPREASDLLRCAAERGVKGYETAWETDVYKGKPTDAQLEASQAEAAVTDAAGTECVAGSSGALSSSTSDCKKAAHNSAQASAAATLMALQLRGDQTLPPPQMRSALQEEMERSITAERQALRPFTAGLHYTEMRSVFRPRVHRQLWYQWHQIANRYRPTASLKRRQLAPRDSPTGIPAWNRL	not soluble
MAATSRPERVWPDGVIPFVIGGNFTGSQRAVFRQAMRHWEKHTCVTFLERTDEDSYIVFTYRPCGCCSYVGRRGGGPQAISIGKNCDKFGIVVHELGHVVGFWHEHTRPDRDRHVSIVRENIQPGQEYNFLKMEPQEVESLGETYDFDSIMHYARNTFSRGIFLDTIVPKYEVNGVKPPIGQRTRLSKGDIAQARKLYKCPA	soluble
GLPDSAFEHDGQLTKRDVRAITLARLAPVPGELLWDVGAGCGSIGIEWMRAHPTCRAMAIEADEGRQQLIEFNRDALGVPGLQLVRGSAPQALSGLERPDAIFIGGGVTRIGVLETCWEQLRSGGRLVANAVTLQSEAALMAWRERHGGELTRIHVAHAQPLGEFDTWRQALPITLLDVVKP	not soluble
MGSDKIHHHHHHAWGAKDAEVGKAWKGWKKGQFQIHLIYTGVSESMFLIFPDGTTMLLDCGDHNAVGRGKLAVPVLPNPDRHAGEWISRYVRRVNPQKDYVDYMMLTHYHSDHGGNNKFYARKETRDGKDYYLSGFSQAAEYLTFGKAFDRCWPDYNDPLPLTQEAADAFEHMKDFYDYMLAHKKMEIEKFCLGETNQIAMKKDATAYPGFSVRNICANGRIADKEGNIRDLYAERKKSNPVKFSENGMSLGMIFTYGDFKFYTAGDFSDGWELPNGKRFEIEDAIADVVEPVSVAKINHHGHKSMTDKLVAALRPRVVVNNVWDQLHTLPSVMERFYNRNLYPGERIVCPTVFPAERRAEDAGQPWLDILNPSSFDAGHVIVNVEEGGKDYSVTYLTANDESMTVKSVMRFKS	not soluble
MSLKTTLPISLDWSTEEVIDVVHFFQAIEQAYDQGIAREDLLGKYRRFKEIVPSKSEEKQLFRAYEQENDVSCYQTIKKAREEMEEHIQMEGHHHHHH	soluble
MGSDKIHHHHHHMIVTEHSTRPLGEEGLANYVQRLRGQLSLTQKELSFKAGIHIQTIRKIEGGQTNRLNQKAKGGLAAALGIPPEYLDAAAKKVSPETITTLKFCPKCWTPGTTPDQMWTDLRSKYCFACGTALRNRCVSCNEPIMSLKFKFCPYCGANYKQNQTTS	not soluble
MIFMNMVNRERELQALKKRLSSNDLELIIIYGRRRIGKTFLIINAVNGYDFIYYLATEKNNLRKFKELTESKYEDIKYVKEDWEAIFHYLRDKIIIIDEFPYMIKEDESILSTFQKIVDETLKGSKTKLILLGSSISMMEDAISYKSPLYGRRTASIELKELKFKDLKGFNFSLIDAIHVYGFAGGVPFYLTKAKTPFLKWINAELKEVDSFIKDEIDFMLRYEFSEIGTYKEILHAISSGKNTLGEIKDFVRISGDVSSYLNKLEKIGIIGKEFPYKMKKGARYYIKDNFTLFWFTFIYPNLSLIEEGIYEIKEDEYNVYLGRIFEKIAREYVEDVYKVKVERLWFKDVEIDIYGDGIAGECKWSEGINGEKVLYELKRKVEDLGLDVKKYIIFAKSFSKTNEEAEFIDLKKLEQWYRTLEHHHHHH	soluble
MFLFSELCRRLSPDAVRIVSDHRIVHLLTDSRTLSEPATTLFFALRTTSGDGHLYIRDLYDRGVRSFVISDPSKDLMEKMPQANWMRVAHPLDALQRIAALRRSMFDIPVIGITGSNGKTIVKEFLYQLLRKDYRIVRSPRSYNSQIGVPLSVWQMAEEHTLGIFEAGISQMGEMERLE	not soluble
